Results: US20180155451A1 (published 2018)

T1: FcγRIIb (human, UniProt P31994 43-217)
T1 construct: extracellular domain; also called FcgRIIb; 2b; not shown: His tag at the C terminus
T1 sequence (looked up): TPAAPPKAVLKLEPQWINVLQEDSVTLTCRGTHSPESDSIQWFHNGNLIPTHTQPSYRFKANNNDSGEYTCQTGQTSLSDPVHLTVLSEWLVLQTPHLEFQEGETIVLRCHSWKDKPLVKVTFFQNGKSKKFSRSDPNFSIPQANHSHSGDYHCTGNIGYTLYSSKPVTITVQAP


What was measured:
[1] = target: T2, FcγRIa (human, UniProt P12314 16-292); assay: SPR (Biacore), antibody captured, FcγR as analyte; binding as % of GpH7-A5/GpH7-B3/GpL16-k0
T2 construct: extracellular domain; also called FcgRI; 1a; not shown: His tag at the C terminus

[2] = target: T1, FcγRIIb; assay: as above
[3] = target: T3, FcγRIIIa extracellular domain with C-terminal His tag (human, UniProt P08637 17-208); assay: SPR (Biacore), antibody captured on antigen-peptide chip, FcγR analyte, relative binding
T3 construct: extracellular domain; also called 3a; FcgRIIIa
T3 sequence (P08637 17-208): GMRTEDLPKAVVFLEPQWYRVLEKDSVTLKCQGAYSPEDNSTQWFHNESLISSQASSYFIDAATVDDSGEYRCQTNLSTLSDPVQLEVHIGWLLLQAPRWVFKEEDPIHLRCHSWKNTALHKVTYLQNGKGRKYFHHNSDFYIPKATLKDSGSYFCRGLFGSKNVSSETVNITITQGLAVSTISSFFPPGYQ

T2 sequence (P12314 16-292): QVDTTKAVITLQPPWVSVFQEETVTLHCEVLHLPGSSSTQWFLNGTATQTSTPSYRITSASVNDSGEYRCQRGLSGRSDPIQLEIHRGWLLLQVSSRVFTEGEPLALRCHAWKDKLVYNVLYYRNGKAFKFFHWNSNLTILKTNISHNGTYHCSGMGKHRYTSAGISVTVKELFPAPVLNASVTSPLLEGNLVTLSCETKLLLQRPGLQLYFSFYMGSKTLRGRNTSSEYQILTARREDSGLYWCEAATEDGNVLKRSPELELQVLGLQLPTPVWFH

Binder	He/Con_1a [1]	He/Con_2b [2]	Ho/Con_3a [3]
GpH7-A5/GpH7-B3 variant S324_06M/GpL16-k0 (antibody, human IgG1, kappa, heterodimerized IgG1; alteration in the GpH7-B3 H chain only; also called He Ab) heavy 1: not shown heavy 2: not shown light: DIVMTQSPLSLPVTPGEPASISCQASESLVHSNRNTYLHWYLQKPGQSPQLLIYKVSNRFSGVPDRFSGSGSGTDFTLKISRVEAEDVGVYYCSQNTHVPPTFGQGTKVEIERTVAAPSVFIFPPSDEQLKSGTASVVCLLNNFYPREAKVQWKVDNALQSGNSQESVTEQDSKDSTYSLSSTLTLSKADYEKHKVYACEVTHQGLSSPVTKSFNRGEC	99.2 % of control	112 % of control	
GpH7-B3 variant S337_01G/GpL16-k0 (homodimerized antibody, Ho Ab) (antibody, human IgG1, kappa, Mutation in both H chains; also called S337_01G Ho Ab) heavy: not shown light: DIVMTQSPLSLPVTPGEPASISCQASESLVHSNRNTYLHWYLQKPGQSPQLLIYKVSNRFSGVPDRFSGSGSGTDFTLKISRVEAEDVGVYYCSQNTHVPPTFGQGTKVEIERTVAAPSVFIFPPSDEQLKSGTASVVCLLNNFYPREAKVQWKVDNALQSGNSQESVTEQDSKDSTYSLSSTLTLSKADYEKHKVYACEVTHQGLSSPVTKSFNRGEC			108 % of GpH7-B3/GpL16-k0 (=100)
GpH7-B3 variant S337_16H/GpL16-k0 (homodimerized antibody, Ho Ab) (antibody, human IgG1, kappa, Mutation in both H chains; also called S337_16H Ho Ab) heavy: not shown light: DIVMTQSPLSLPVTPGEPASISCQASESLVHSNRNTYLHWYLQKPGQSPQLLIYKVSNRFSGVPDRFSGSGSGTDFTLKISRVEAEDVGVYYCSQNTHVPPTFGQGTKVEIERTVAAPSVFIFPPSDEQLKSGTASVVCLLNNFYPREAKVQWKVDNALQSGNSQESVTEQDSKDSTYSLSSTLTLSKADYEKHKVYACEVTHQGLSSPVTKSFNRGEC			112 % of GpH7-B3/GpL16-k0 (=100)
GpH7-B3 variant T335_08L/GpL16-k0 (homodimerized antibody, Ho Ab) (antibody, human IgG1, kappa, Mutation in both H chains; also called T335_08L Ho Ab) heavy: not shown light: DIVMTQSPLSLPVTPGEPASISCQASESLVHSNRNTYLHWYLQKPGQSPQLLIYKVSNRFSGVPDRFSGSGSGTDFTLKISRVEAEDVGVYYCSQNTHVPPTFGQGTKVEIERTVAAPSVFIFPPSDEQLKSGTASVVCLLNNFYPREAKVQWKVDNALQSGNSQESVTEQDSKDSTYSLSSTLTLSKADYEKHKVYACEVTHQGLSSPVTKSFNRGEC			103 % of GpH7-B3/GpL16-k0 (=100)
GpH7-B3 variant T335_09D/GpL16-k0 (homodimerized antibody, Ho Ab) (antibody, human IgG1, kappa, Mutation in both H chains; also called T335_09D Ho Ab) heavy: not shown light: DIVMTQSPLSLPVTPGEPASISCQASESLVHSNRNTYLHWYLQKPGQSPQLLIYKVSNRFSGVPDRFSGSGSGTDFTLKISRVEAEDVGVYYCSQNTHVPPTFGQGTKVEIERTVAAPSVFIFPPSDEQLKSGTASVVCLLNNFYPREAKVQWKVDNALQSGNSQESVTEQDSKDSTYSLSSTLTLSKADYEKHKVYACEVTHQGLSSPVTKSFNRGEC			114 % of GpH7-B3/GpL16-k0 (=100)
GpH7-B3 variant S324_14T/GpL16-k0 (homodimerized antibody, Ho Ab) (antibody, human IgG1, kappa, Mutation in both H chains; also called S324_14T Ho Ab) heavy: not shown light: DIVMTQSPLSLPVTPGEPASISCQASESLVHSNRNTYLHWYLQKPGQSPQLLIYKVSNRFSGVPDRFSGSGSGTDFTLKISRVEAEDVGVYYCSQNTHVPPTFGQGTKVEIERTVAAPSVFIFPPSDEQLKSGTASVVCLLNNFYPREAKVQWKVDNALQSGNSQESVTEQDSKDSTYSLSSTLTLSKADYEKHKVYACEVTHQGLSSPVTKSFNRGEC			108 % of GpH7-B3/GpL16-k0 (=100)
GpH7-B3 variant S239_10E/GpL16-k0 (homodimerized antibody, Ho Ab) (antibody, human IgG1, kappa, Mutation in both H chains; also called S239_10E Ho Ab) heavy: not shown light: DIVMTQSPLSLPVTPGEPASISCQASESLVHSNRNTYLHWYLQKPGQSPQLLIYKVSNRFSGVPDRFSGSGSGTDFTLKISRVEAEDVGVYYCSQNTHVPPTFGQGTKVEIERTVAAPSVFIFPPSDEQLKSGTASVVCLLNNFYPREAKVQWKVDNALQSGNSQESVTEQDSKDSTYSLSSTLTLSKADYEKHKVYACEVTHQGLSSPVTKSFNRGEC			252 % of GpH7-B3/GpL16-k0 (=100)
GpH7-A5/GpH7-B3 variant P331_10E/GpL16-k0 (antibody, human IgG1, kappa, heterodimerized IgG1; alteration in the GpH7-B3 H chain only; also called He Ab) heavy 1: not shown heavy 2: not shown light: DIVMTQSPLSLPVTPGEPASISCQASESLVHSNRNTYLHWYLQKPGQSPQLLIYKVSNRFSGVPDRFSGSGSGTDFTLKISRVEAEDVGVYYCSQNTHVPPTFGQGTKVEIERTVAAPSVFIFPPSDEQLKSGTASVVCLLNNFYPREAKVQWKVDNALQSGNSQESVTEQDSKDSTYSLSSTLTLSKADYEKHKVYACEVTHQGLSSPVTKSFNRGEC	95 % of control	116 % of control	
GpH7-B3 variant T335_05P/GpL16-k0 (homodimerized antibody, Ho Ab) (antibody, human IgG1, kappa, Mutation in both H chains; also called T335_05P Ho Ab) heavy: not shown light: DIVMTQSPLSLPVTPGEPASISCQASESLVHSNRNTYLHWYLQKPGQSPQLLIYKVSNRFSGVPDRFSGSGSGTDFTLKISRVEAEDVGVYYCSQNTHVPPTFGQGTKVEIERTVAAPSVFIFPPSDEQLKSGTASVVCLLNNFYPREAKVQWKVDNALQSGNSQESVTEQDSKDSTYSLSSTLTLSKADYEKHKVYACEVTHQGLSSPVTKSFNRGEC			119 % of GpH7-B3/GpL16-k0 (=100)
GpH7-B3 variant S324_06M/GpL16-k0 (homodimerized antibody, Ho Ab) (antibody, human IgG1, kappa, Mutation in both H chains; also called S324_06M Ho Ab) heavy: not shown light: DIVMTQSPLSLPVTPGEPASISCQASESLVHSNRNTYLHWYLQKPGQSPQLLIYKVSNRFSGVPDRFSGSGSGTDFTLKISRVEAEDVGVYYCSQNTHVPPTFGQGTKVEIERTVAAPSVFIFPPSDEQLKSGTASVVCLLNNFYPREAKVQWKVDNALQSGNSQESVTEQDSKDSTYSLSSTLTLSKADYEKHKVYACEVTHQGLSSPVTKSFNRGEC			114 % of GpH7-B3/GpL16-k0 (=100)
